According to paper PMC1888729, “Control of Pre-mRNA Splicing by the General Splicing Factors PUF60 and U2AF65”:

Assays:
[1] = molecular target: T1, PUF60 (short isoform PUF60S, HEK-293E-derived) (Homo sapiens, UniProt Q9UHX1-2 1-542); assay: EMSA; PUF60 alone; 25 mM Tris pH 7.5, 25 mM NaCl, 1 mM EDTA, 0.1 mg/ml tRNA, 0.5 mg/ml BSA, ~0.2 nM RNA, 60 min room temperature (6% native gel in cold room); footprints same plus 1 U/ml RNasin, 30 min, then 2.6 mg/ml tRNA with RNase 5 min; conditions: protein: recombinant; label: 32P; single strand
T1 sequence (Q9UHX1 other isoform, or with tags, fused parts or gaps): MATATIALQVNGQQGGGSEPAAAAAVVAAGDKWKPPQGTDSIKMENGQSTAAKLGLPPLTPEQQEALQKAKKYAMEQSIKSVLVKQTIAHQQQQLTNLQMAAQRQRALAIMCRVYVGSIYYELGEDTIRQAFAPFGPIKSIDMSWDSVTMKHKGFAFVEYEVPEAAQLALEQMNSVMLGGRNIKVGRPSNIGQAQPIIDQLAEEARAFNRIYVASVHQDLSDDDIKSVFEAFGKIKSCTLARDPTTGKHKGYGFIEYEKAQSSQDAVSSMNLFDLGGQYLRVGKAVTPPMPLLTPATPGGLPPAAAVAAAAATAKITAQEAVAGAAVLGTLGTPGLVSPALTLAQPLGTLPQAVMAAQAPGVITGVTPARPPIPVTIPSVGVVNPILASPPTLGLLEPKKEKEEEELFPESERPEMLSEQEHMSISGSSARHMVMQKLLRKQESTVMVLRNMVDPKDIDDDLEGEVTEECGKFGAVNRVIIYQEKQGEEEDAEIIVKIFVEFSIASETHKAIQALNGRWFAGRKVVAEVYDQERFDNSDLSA

U2AF65 (in U2AF65/35 …) = molecular target: U2AF65 (in U2AF65/35 heterodimer);U2AF35 (in U2AF65/35 heterodimer) (Homo sapiens;Homo sapiens, UniProt P26368;Q01081 1-475;1-240, |); assay: EMSA; U2AF65/35 alone; 25 mM Tris pH 7.5, 25 mM NaCl, 1 mM EDTA, 0.1 mg/ml tRNA, 0.5 mg/ml BSA, ~0.2 nM RNA, 60 min room temperature (6% native gel in cold room); footprints same plus 1 U/ml RNasin, 30 min, then 2.6 mg/ml tRNA with RNase 5 min; conditions: protein: recombinant;recombinant; tags: ;; copies: 1;1; label: 32P; single strand
U2AF65 (in U2AF65/35 heterodimer);U2AF35 (in U2AF65/35 heterodimer), sequence (P26368 whole entry, chain 1 of 2, canonical isoform): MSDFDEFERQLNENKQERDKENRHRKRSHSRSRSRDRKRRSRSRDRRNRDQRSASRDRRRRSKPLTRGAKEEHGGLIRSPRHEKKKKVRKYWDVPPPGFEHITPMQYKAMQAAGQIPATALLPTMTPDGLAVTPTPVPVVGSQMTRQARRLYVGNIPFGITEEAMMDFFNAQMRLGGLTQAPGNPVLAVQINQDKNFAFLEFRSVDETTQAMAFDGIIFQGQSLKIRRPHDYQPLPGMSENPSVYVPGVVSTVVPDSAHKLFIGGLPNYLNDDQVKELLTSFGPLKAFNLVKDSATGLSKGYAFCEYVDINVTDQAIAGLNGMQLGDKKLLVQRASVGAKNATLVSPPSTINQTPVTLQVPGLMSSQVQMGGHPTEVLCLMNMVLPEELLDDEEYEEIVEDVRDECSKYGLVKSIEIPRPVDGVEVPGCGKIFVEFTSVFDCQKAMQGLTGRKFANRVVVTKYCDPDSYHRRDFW
U2AF65 (in U2AF65/35 heterodimer);U2AF35 (in U2AF65/35 heterodimer), sequence (Q01081 whole entry, chain 2 of 2, canonical isoform): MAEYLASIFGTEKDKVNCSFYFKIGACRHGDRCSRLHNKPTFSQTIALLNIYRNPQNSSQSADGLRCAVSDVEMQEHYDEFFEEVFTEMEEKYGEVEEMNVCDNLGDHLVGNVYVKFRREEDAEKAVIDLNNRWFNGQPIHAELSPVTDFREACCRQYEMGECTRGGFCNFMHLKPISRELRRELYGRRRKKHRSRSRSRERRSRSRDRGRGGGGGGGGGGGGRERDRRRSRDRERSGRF

[2] = molecular target: T1, PUF60 (short isoform PUF60S, …); assay: EMSA; with U2AF65/35; PUF60 binding enhanced, U2AF:RNA complex decreases; 25 mM Tris pH 7.5, 25 mM NaCl, 1 mM EDTA, 0.1 mg/ml tRNA, 0.5 mg/ml BSA, ~0.2 nM RNA, 60 min room temperature (6% native gel in cold room); footprints same plus 1 U/ml RNasin, 30 min, then 2.6 mg/ml tRNA with RNase 5 min; conditions: protein: recombinant; label: 32P; single strand

Measured: binding result

UUCGUGCUGACCCUGUCCCUUUUUUUUCCACAGC (ssRNA) [AdML 3' splice-site RNA, 34 nt]
binds: all assays above
